Columns and labels:
[1] = target: human ACE2 peptidase domain (amino acids 1-615 of human ACE2 with C-terminal His-10 and Avi tags) (human) (UniProt Q9BYF1)
[2] = target: human ACE2 peptidase domain (amino acids 1-615 of human ACE2 with C-terminal His-10 and Avi tags) (human) (UniProt Q9BYF1); test: biolayer interferometry (Octet RED384); assumed value, not measured

Chain of UniProt Q9BYF1 (Q9BYF1 18-615 limits assumed): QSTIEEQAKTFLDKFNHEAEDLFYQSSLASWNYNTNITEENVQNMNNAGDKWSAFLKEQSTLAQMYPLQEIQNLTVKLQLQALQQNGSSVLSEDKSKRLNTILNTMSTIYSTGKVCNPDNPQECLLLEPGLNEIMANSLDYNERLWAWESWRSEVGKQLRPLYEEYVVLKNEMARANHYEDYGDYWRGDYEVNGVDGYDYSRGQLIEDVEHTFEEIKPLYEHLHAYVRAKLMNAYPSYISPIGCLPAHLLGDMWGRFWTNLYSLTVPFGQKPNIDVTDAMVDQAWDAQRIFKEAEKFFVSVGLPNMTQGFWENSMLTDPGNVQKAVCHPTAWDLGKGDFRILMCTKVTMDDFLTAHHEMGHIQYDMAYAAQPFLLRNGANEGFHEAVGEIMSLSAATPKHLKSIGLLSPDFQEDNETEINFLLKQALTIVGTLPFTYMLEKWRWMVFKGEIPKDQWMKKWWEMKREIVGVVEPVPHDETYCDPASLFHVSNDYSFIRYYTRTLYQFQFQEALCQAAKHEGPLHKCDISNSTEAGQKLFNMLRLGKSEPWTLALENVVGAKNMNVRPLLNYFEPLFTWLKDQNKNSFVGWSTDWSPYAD

RBD-foldon trimer (trimerised SARS-CoV-2 spike receptor-binding domain fused to the T4 fibritin fold (other; other documents disagree on this pair)
Kd [1]: 5 pM
koff [2]: < 1e-06 s⁻¹

Source: patent publication US20230075979A1
